For seven molecules, pKd results are on record in paper PMC9482650, “Quantitative fragmentomics allow affinity mapping of interactomes” (Nature Communications, 2022).

Some targets named below: SCRIB_3, Q14160; MAST2, Q6P0Q8; MAGI2_2, Q86UL8.
Holding throughout (test): holdup assay
What all share (design): key: below the threshold = too weak to quantify, mostly under pKd 3.1 to 4

Another assay addresses T1, PARD3B_1, Q8TEW8.
T1 sequence (Q8TEW8 196-299, limits assumed, looked up): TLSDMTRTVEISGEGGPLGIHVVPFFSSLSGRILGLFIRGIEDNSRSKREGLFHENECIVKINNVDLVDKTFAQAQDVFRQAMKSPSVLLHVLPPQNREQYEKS

The target of the next assay is PARD3_3, Q8TEW0. The settings on record: plain residues with an end cap or a label only (N-terminal biotin on a linker: ado-ado).
PARD3_3, Q8TEW0, sequence (Q8TEW0 582-685): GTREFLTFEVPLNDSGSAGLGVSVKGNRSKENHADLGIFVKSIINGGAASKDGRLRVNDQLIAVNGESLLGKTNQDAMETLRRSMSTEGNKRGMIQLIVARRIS
For a further assay, the target named is IL16_4, Q14005. The settings on record: plain residues with an end cap or a label only (N-terminal biotin on a linker: ado-ado).
IL16_4, Q14005, sequence (Q14005 1229-1329): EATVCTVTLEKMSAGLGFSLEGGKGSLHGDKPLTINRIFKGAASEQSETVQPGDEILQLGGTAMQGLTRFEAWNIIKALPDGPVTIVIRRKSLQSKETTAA
The target of a further assay is NHERF4_2, Q86UT5. The settings on record: plain residues with an end cap or a label only (N-terminal biotin on a linker: ado-ado).
NHERF4_2, Q86UT5, sequence (Q86UT5 220-308): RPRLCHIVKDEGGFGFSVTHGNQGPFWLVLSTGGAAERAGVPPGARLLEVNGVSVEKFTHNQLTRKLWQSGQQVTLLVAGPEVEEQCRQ
The next assay has as its target FRMPD4, Q14CM0. The settings on record: plain residues with an end cap or a label only (N-terminal biotin on a linker: ado-ado).
In a further assay the target is MAGI2_4, Q86UL8. The settings on record: plain residues with an end cap or a label only (N-terminal biotin on a linker: ado-ado).
MAGI2_4, Q86UL8, sequence (Q86UL8 772-865): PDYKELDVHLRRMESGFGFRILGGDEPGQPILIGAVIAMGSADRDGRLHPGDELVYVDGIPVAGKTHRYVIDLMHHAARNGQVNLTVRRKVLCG
A further assay has as its target T2, SYNJ2BP, P57105.
T2 sequence (P57105 8-110, limits assumed, looked up): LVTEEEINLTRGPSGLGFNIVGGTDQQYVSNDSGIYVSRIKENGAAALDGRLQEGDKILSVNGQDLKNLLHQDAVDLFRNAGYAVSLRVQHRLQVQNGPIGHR

Another assay concerns the target APBA1_1, Q02410. The settings on record: plain residues with an end cap or a label only.
Another assay has as its target APBA1_2, Q02410. To be noted: plain residues with an end cap or a label only.
Another assay addresses AHNAK1, Q09666. To be noted: plain residues with an end cap or a label only.
A further assay has as its target T3, NHERF3_1, Q5T2W1.
T3 sequence (Q5T2W1 4-100, limits assumed, looked up): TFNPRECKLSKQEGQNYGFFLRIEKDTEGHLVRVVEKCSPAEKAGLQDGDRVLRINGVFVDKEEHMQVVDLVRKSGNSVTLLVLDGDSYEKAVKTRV
The settings on record: plain residues with an end cap or a label only (N-terminal biotin on a linker: ado-ado).

The target in a further assay is T4, LIN7B, Q9HAP6.
T4 sequence (Q9HAP6 88-185, limits assumed, looked up): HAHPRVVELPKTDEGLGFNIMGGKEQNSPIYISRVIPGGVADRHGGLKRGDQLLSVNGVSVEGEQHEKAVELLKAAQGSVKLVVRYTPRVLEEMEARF
The settings on record: plain residues with an end cap or a label only (N-terminal biotin on a linker: ado-ado).

For a further assay, the target named is DLG2_3, Q15700. To be noted: plain residues with an end cap or a label only (N-terminal biotin on a linker: ado-ado).
A further assay has as its target T5, MPP6, Q9NZW5.
T5 sequence (Q9NZW5 125-219, limits assumed, looked up): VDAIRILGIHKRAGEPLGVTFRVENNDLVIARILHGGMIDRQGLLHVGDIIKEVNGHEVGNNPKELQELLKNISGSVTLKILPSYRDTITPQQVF
The settings on record: plain residues with an end cap or a label only (N-terminal biotin on a linker: ado-ado).

The target of the next assay is GRASP, Q7Z6J2. To be noted: plain residues with an end cap or a label only (N-terminal biotin on a linker: ado-ado).
GRASP, Q7Z6J2, sequence (Q7Z6J2 96-193): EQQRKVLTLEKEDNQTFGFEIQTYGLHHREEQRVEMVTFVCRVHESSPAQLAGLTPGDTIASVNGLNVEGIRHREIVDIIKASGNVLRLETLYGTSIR
In a further assay the target is DLG1_2, Q12959. To be noted: plain residues with an end cap or a label only (N-terminal biotin on a linker: ado-ado).
DLG1_2, Q12959, sequence (Q12959 314-412): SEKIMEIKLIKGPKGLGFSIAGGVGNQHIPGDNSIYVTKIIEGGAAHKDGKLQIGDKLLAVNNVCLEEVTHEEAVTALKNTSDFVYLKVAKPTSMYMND
A further assay concerns the target NHERF4_4, Q86UT5. The settings on record: plain residues with an end cap or a label only (N-terminal biotin on a linker: ado-ado).
The target of a further assay is APBA2_1, Q99767. To be noted: plain residues with an end cap or a label only.
APBA2_1, Q99767, sequence (Q99767 565-653): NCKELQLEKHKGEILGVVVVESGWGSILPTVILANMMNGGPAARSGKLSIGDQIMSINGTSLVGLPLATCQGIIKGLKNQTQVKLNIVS
The target in the next assay is HTRA1, Q92743. To be noted: modified: phosphorylated residue at T733 (position -2 from the C-terminal residue); phosphorylated residue at T734 (position -1 from the C-terminal residue).
HTRA1, Q92743, sequence (Q92743 365-480): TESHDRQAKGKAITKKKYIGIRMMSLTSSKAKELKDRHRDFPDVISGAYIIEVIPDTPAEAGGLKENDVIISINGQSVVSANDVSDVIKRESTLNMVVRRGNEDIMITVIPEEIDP
A further assay deals with PTPN3, P26045. The settings on record: modified: O-phospho-L-serine at S732 (position -3 from the C-terminal residue); O-phospho-L-threonine at T734 (position -1 from the C-terminal residue).
PTPN3, P26045, sequence (P26045 505-587): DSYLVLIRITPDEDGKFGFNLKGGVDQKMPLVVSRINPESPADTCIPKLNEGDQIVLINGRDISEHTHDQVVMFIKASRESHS
A further assay concerns the target SNX27, Q96L92. To be noted: modified: phosphorylated residue at S732 (position -3 from the C-terminal residue); phosphorylated residue at T734 (position -1 from the C-terminal residue).
The next assay has as its target MAGI3_2, Q5TCQ9. To be noted: modified: O-phospho-L-serine at S732 (position -3 from the C-terminal residue); O-phospho-L-threonine at T734 (position -1 from the C-terminal residue).
The target in the next assay is SNTG2, Q9NY99. The settings on record: modified: phosphorylated residue at S732 (position -3 from the C-terminal residue); phosphorylated residue at T734 (position -1 from the C-terminal residue).
SNTG2, Q9NY99, sequence (Q9NY99 70-159): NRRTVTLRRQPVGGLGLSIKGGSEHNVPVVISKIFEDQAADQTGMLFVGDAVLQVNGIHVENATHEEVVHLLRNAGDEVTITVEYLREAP
In a further assay the target is SCRIB_1, Q14160. To be noted: modified: O-phospho-L-serine at S732 (position -3 from the C-terminal residue); O-phospho-L-threonine at T734 (position -1 from the C-terminal residue).
SCRIB_1, Q14160, sequence (Q14160 718-814): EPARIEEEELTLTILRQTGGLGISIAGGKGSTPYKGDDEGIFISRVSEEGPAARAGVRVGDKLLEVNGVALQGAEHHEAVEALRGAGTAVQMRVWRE
The target in a further assay is SNTB1, Q13884. The settings on record: modified: O-phospho-L-serine at S732 (position -3 from the C-terminal residue); phosphorylated residue at T734 (position -1 from the C-terminal residue).
SNTB1, Q13884, sequence (Q13884 107-196): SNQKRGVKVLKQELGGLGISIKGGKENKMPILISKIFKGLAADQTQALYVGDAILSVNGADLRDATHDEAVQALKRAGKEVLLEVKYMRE
In another assay the target is PDZD7_3, Q9H5P4. To be noted: modified: phosphorylated residue at S732 (position -3 from the C-terminal residue); phosphorylated residue at T733 (position -2 from the C-terminal residue); phosphorylated residue at T734 (position -1 from the C-terminal residue).
PDZD7_3, Q9H5P4, sequence (Q9H5P4 858-953): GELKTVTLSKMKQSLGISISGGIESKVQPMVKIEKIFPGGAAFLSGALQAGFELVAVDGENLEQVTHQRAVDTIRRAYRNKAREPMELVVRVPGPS
The next assay concerns the target SNTA1, Q13424. The settings on record: modified: O-phospho-L-serine at S732 (position -3 from the C-terminal residue); O-phospho-L-threonine at T734 (position -1 from the C-terminal residue).
In the next assay the target is ARHGEF12, Q9NZN5-2. The settings on record: modified: phosphorylated residue at S732 (position -3 from the C-terminal residue); phosphorylated residue at T734 (position -1 from the C-terminal residue).
ARHGEF12, Q9NZN5-2, sequence (Q9NZN5 other isoform, or with tags, fused parts or gaps): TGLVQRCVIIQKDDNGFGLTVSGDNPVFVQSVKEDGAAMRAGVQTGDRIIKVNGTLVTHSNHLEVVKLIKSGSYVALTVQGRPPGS
The target of another assay is PDZRN4_1, Q6ZMN7. The settings on record: modified: O-phospho-L-serine at S732 (position -3 from the C-terminal residue); O-phospho-L-threonine at T734 (position -1 from the C-terminal residue).
PDZRN4_1, Q6ZMN7, sequence (Q6ZMN7 213-318): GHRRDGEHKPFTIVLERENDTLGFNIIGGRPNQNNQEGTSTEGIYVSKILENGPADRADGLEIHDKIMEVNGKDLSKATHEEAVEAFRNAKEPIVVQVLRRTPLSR
Setting [1] is: plain residues with an end cap or a label only (N-terminal biotin on a linker: ado-ado).
[2] abbreviates: modified: O-phospho-L-serine at S732 (position -3 from the C-terminal residue), O-phospho-L-threonine at T734 (position -1 from the C-terminal residue).

MAGI2_2, Q86UL8, sequence (Q86UL8 410-522): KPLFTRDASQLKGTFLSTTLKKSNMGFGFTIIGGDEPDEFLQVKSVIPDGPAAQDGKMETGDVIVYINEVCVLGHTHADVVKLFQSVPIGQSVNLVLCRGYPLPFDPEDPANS
SNTA1, Q13424, sequence (Q13424 84-171): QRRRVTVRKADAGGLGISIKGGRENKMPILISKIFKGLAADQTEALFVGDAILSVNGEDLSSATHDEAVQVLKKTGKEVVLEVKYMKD
APBA1_2, Q02410, sequence (Q02410 742-822): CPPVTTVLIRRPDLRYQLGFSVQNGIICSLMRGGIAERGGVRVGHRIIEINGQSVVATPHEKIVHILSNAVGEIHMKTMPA
AHNAK1, Q09666, sequence (Q09666 2-98): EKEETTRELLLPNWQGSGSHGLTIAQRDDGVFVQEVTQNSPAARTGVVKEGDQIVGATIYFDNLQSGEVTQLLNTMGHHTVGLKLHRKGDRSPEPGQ
MAGI3_2, Q5TCQ9, sequence (Q5TCQ9 398-503): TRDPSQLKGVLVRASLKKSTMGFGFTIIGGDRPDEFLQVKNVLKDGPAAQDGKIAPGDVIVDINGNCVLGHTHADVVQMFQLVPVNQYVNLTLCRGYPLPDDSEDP
FRMPD4, Q14CM0, sequence (Q14CM0 67-160): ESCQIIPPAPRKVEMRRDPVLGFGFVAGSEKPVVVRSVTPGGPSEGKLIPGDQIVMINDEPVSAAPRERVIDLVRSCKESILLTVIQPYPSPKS
NHERF4_4, Q86UT5, sequence (Q86UT5 464-550): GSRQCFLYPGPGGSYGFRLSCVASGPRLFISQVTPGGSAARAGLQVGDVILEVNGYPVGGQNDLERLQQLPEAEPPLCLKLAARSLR
APBA1_1, Q02410, sequence (Q02410 other isoform, or with tags, fused parts or gaps): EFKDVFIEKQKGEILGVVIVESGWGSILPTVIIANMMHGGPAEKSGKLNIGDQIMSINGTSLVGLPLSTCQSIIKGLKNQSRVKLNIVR

As a reminder, the pKd is the negative decadic logarithm of the Kd, by convention in mol/L. Turning to NTALVESEDL [PALLS, Q8WX93], the pKd with PARD3B_1, Q8TEW8 (setting [1]) worked out at 3.58; with PARD3_3, Q8TEW0, 3.61; in the assay with IL16_4, Q14005, 3.57; with NHERF4_2, Q86UT5, 3.48; with SCRIB_3, Q14160 (setting [1]), 3.73; in the assay with FRMPD4, Q14CM0, 3.65. Moreover, the pKd with MAGI2_4, Q86UL8 stood at 3.59; with SYNJ2BP, P57105 (setting [1]) it was 3.49.

On to RRSQSRESQC [a stretch of P03148, P03148], for which the pKd result with APBA1_1, Q02410 was “below the threshold”.

With RRSQSRESQC [a stretch of P03149, P03149], the pKd result in the assay with APBA1_2, Q02410 is listed as “below the threshold”.

With RRSQSRESQC [a stretch of P03146, P03146], the pKd entry with AHNAK1, Q09666 was “below the threshold”.

For the molecule VKQYADVEGF [HNRNPK, P61978], the pKd with NHERF3_1, Q5T2W1 stood at 3.53; with MAST2, Q6P0Q8 (setting [1]), 3.87; with LIN7B, Q9HAP6 it was 3.61; in the assay with DLG2_3, Q15700, 3.55; with IL16_4, Q14005, 3.51; in the assay with MPP6, Q9NZW5, 3.7. Besides, the pKd with MAGI2_2, Q86UL8 (setting [1]) is 3.56; in the assay with GRASP, Q7Z6J2, 3.76; with DLG1_2, Q12959 it was 3.72; with NHERF4_4, Q86UT5, 3.72.

Take RRSQSRESQC [a stretch of P69706, P69706]: in the assay with APBA2_1, Q99767, the pKd result is reported as “below the threshold”.

In the case of RVRKLPSTTL [a stretch of Q15418, Q15418], the pKd entry is on record as “below the threshold” in the assay with HTRA1, Q92743; “below the threshold” with MAST2, Q6P0Q8 (setting [2]); “below the threshold” with PTPN3, P26045; “below the threshold” with SNX27, Q96L92; “below the threshold” with PARD3B_1, Q8TEW8 (modified: phosphorylated residue at S732 (position -3 from the C-terminal residue), phosphorylated residue at T733 (position -2 from the C-terminal residue), phosphorylated residue at T734 (position -1 from the C-terminal residue)); “below the threshold” with MAGI3_2, Q5TCQ9. Besides, the pKd result with SNTG2, Q9NY99 is “below the threshold”; with SCRIB_1, Q14160, “below the threshold”; in the assay with SCRIB_3, Q14160 (setting [2]) it was “below the threshold”; with SNTB1, Q13884 it was “below the threshold”; in the assay with PDZD7_3, Q9H5P4 it was “below the threshold”; with SNTA1, Q13424 it was “below the threshold”. The pKd result with ARHGEF12, Q9NZN5-2 is reported as “below the threshold”; in the assay with SYNJ2BP, P57105 (setting [2]), “below the threshold”; with MAGI2_2, Q86UL8 (modified: O-phospho-L-threonine at T734 (position -1 from the C-terminal residue), phosphorylated residue at S732 (position -3 from the C-terminal residue)) it was “below the threshold”; with PDZRN4_1, Q6ZMN7, “below the threshold”.
